# Data published in PMC6585436 (Chemistry & biology, 2015).
# Values joined by “and” are separate entries in the source; they are usually repeats but may differ in a detail not shown here. Identical values can stand only once. Like-named read-outs stand apart in the source and are kept apart here.
# B1: SaMscL C-GFP (pet15b-SaMscL-S-TEV-GFP-6xHis) (natural protein, Staphylococcus aureus, UniProt P68805 1-120, looked up)
# chain: MLKEFKEFALKGNVLDLAIAVVMGAAFNKIISSLVENIIMPLIGKIFGSVDFAKEWSFWGIKYGLFIQSVIDFIIIAFALFIFVKIANTLMKKEEAEEEAVVEENVVLLTEIRDLLREKK
# B2: N-His SaMscL (pet15b-10xHis-Thrombin-SaMscL) (natural protein, Staphylococcus aureus, UniProt P68805 1-120, looked up)
# chain: B1 chain
# B3: Full-length SaMscL, cleaved of its C-terminal GFP tag (natural protein, Staphylococcus aureus, UniProt P68805 1-120, looked up)
# chain: B1 chain
# B4: SaMscL CΔ25 C-GFP (pet15b-SaMscL CΔ(96–120)-S-TEV-GFP-6xHis) (domain or fragment)
# chain: MLKEFKEFALKGNVLDLAIAVVMGAAFNKIISSLVENIIMPLIGKIFGSVDFAKEWSFWGIKYGLFIQSVIDFIIIAFALFIFVKIANTLMKKEE
# What was measured:
# Test in all cases: native MS
# [1] = molecular target: N-His MtMscL (pet15b-10xHis-Thrombin-MtMscL-PG) (Mycobacterium tuberculosis) (UniProt A5U127)
# [2] = molecular target: N-His MtMscL (pet15b-10xHis-Thrombin-MtMscL-PG) (Mycobacterium tuberculosis) (UniProt A5U127); remark: listed apart in the source
# [3] = molecular target: AfMscL C-GFP (pet15b-AfMscL-TEV-GFP-6xHis) (Acidithiobacillus ferrooxidans)
# native MS [4] = molecular target: the molecule itself
# native MS [5] = molecular target: the molecule itself; remark: listed apart in the source
# native MS [6] = molecular target: the molecule itself; remark: listed apart in the source
# native MS [7] = molecular target: the molecule itself; remark: listed apart in the source
# native MS [8] = molecular target: the molecule itself; remark: listed apart in the source
molecule,measurement,setting,value
N-His MtMscL (pet15b-10xHis-Thrombin-MtMscL-PG) (from UniProt A5U127 1-151) (natural protein),relative abundance of pentamer,[1],38%
same,relative abundance of tetramer,[1],63%
same,stoichiometry N,[1],4
same,stoichiometry N,[2],5
AfMscL C-GFP (pet15b-AfMscL-TEV-GFP-6xHis) (natural protein),stoichiometry N,[3],5
B1,stoichiometry N,native MS [4],5
same,stoichiometry N,native MS [5],4
B2,stoichiometry N,native MS [4],4 and 3 and 2
same,stoichiometry N,native MS [6],5
B3,stoichiometry N,native MS [7],5 and 4
B4,stoichiometry N,native MS [8],5
same,stoichiometry N,native MS [6],4
